{
  "source": "paper PMC9998937",
  "target": "T1, ArcR (Staphylococcus aureus NCTC8325) (UniProt Q2FUY1)",
  "T1 sequence": "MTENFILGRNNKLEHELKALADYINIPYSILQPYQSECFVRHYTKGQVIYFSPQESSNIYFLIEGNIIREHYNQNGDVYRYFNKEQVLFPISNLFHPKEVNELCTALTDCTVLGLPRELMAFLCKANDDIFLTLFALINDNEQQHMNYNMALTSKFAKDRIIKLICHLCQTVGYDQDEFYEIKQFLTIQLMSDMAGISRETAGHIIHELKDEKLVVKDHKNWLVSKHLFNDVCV",
  "assay": "EMSA",
  "data": [
    {"sequence": "ACACCAGTTAACTTTTTGTCTTGTTGTGACATAGTCATCCCTCCACAATTTATAATAATTATAATTTAATACATATTATAATTTAACCCCATCAAAATTACAATTAAACATGCTCAAGATGATTAAAAAATCAGAAAATTTTAATTTTTTCGCTTTACAGTACTAAATAGTTATTGAATAGTACACTTAAAAAGCTTACAATAATGGGTATATTTAAATAGATGGGAGACTAAATATGGAAGAT (double strand) [katA promoter region]", "values": [
      {"measurement": "binding", "value": "binds"}
    ]},
    {"sequence": "AGCGCGTGTTGTTATGTCGCGAATGGTAATCTTTTCTAAATCTTTTTCTTGTAGTAATTTAGTGAACGCTTGTTTAATGGAGGACTTTGTCTTTCTAATTCGCCTATCTTCTTTCAAAAATAAATCAACCTCCTTGTGTTATTGAACAATGTGGGTGTATTTGTCTATTAATGAACGTATTGATGAACATTGTGTATTGTTTATTCCCACTTACATATTATAATAGACAACATGCGAAATATTCAACACATTGTCTAATAAGGAGGT (double strand) [tetA promoter region]", "values": [
      {"measurement": "binding", "value": "no binding"}
    ]}
  ]
}
